Reference: patent publication WO2007022015A1
Each block holds one molecule with its values, some of them ahead of it.

Experiments:
[1] = target: rodent (mouse) Aβ1-40 (mouse (rodent)) (UniProt P12023); assay: microplate assay on coated human and rodent Aβ1-40 and 1-42
[2] = target: rodent (mouse) Aβ1-42 (mouse (rodent)) (UniProt P12023); assay: as above
[3] = target: amyloid β (3-40) (human) (UniProt P05067); assay: sandwich ELISA, IAlO capture, HRP-14Fl detection, Abeta fragment 3-40
[4] = target: human Aβ1-40 (human) (UniProt P05067); assay: sandwich ELISA, IAlO capture, HRP-14Fl detection, human and mouse Abeta 1-40
[5] = target: amyloid β (2-40) (human) (UniProt P05067); assay: sandwich ELISA, IAlO capture, HRP-14Fl detection, Abeta fragment 2-40

cross-reactivity (against human Aβ) [1]: 10% | cross-reactivity (against human Aβ) [2]: 10%
Molecule: Aβ N-terminal-end specific monoclonal antibody 82E1 (printed 82El)

cross reactivity (against full-length Abeta 1-40) [3]: 0.08% | cross reactivity (against mouse Abeta 1-40) [4]: 50% | cross reactivity (against full-length Abeta 1-40) [5]: 0.78%
B1: 14F1, mouse/human cross-reactive N terminus end-specific anti-Abeta antibody (antibody, V domains shown)
VH: DVHLQASGPDLVRPSQSLSLTCTVTDYSITSDYSWHWIRQFPGNKLEWMGYILFSGSSNFNPSLKSRISITRDTSKNQFFLHLNSVTTEDTATYYCARRAYDGNFSWFAYWGQGTLVTVSA
VL: QAVVTQESALTTSPGETVTLTCRSSAGAVTISNYANWVQEKPDHLFTGLIGGTNNRAPGVPARFSGSLIGDKAALTITGAQTEDEAIYFCALWYGNYWVFGGGTKLTVLG
